Results on one molecule are retold here after patent US7547509B2, “Cyanovirin variant-polymer conjugates” (priority 2002, dated 2009).

In data set [1] the test system is HIV. Description: Anti-HIV bioassay conducted at the National Cancer Institute. The data set is classed as cell-based. To be noted: against HIV, methods of U.S. Pat. No. 5,843,883. On the procedure: Bioassays were conducted at the National Cancer Institute using the methods described in U.S. Pat. No. 5,843,883 (column 20, lines 20-55), which patent is incorporated herein by reference.

A short description of data set [2]: Acute toxicity dose escalation study in mice. The data set is classed as in vivo, Hsd:ICR(CD-1) mice. To be noted: intravenously on three consecutive days, high doses / equivalent dose. On the procedure: To compare the acute toxicity of native CV-N and the PEG30 kD-MAL-CV-N(Q62C) conjugate, an in vivo dose escalation study was performed in which Hsd:ICR(CD-1) mice were administered modified or unmodified CN-N intravenously on three consecutive days.

Data set [3] relates to influenza A/Udorn (H3N2). Description: Influenza virus inactivation assay (protection of MDCK cells). The data set is classed as cell-based. To be noted: read on day 5, read-out: ED50 (dose required to protect 50% of MDCK cells from influenza infection).

B1: Cyanovirin-N (protein, listed as Nostoc ellipsosporum)
chain: LGKFSQTCYNSAIQGSVLTSTCERTNGGYNTSSIDLNSVIENVDGSLKWQPSNFIETCRNTQLAGSSELAAECKTRAQQFVSTKINLDDHIANIDGTLKYE
Molecule B1 registered an ED50 in data set [1] of 1 ng/mL. Moreover, in data set [2], the “acute toxicity (observation)” value is listed as “death of all of the mice”. Moreover, in data set [3], the EC50 came out at 2.56 nM.
